We go through one substance from paper PMC10754036.

In this assay the target is PSD95, His tagged recombinant (UniProt P78352). Nature of the assay: BLI.
Sequence of PSD95, His tagged recombinant (P78352 whole entry): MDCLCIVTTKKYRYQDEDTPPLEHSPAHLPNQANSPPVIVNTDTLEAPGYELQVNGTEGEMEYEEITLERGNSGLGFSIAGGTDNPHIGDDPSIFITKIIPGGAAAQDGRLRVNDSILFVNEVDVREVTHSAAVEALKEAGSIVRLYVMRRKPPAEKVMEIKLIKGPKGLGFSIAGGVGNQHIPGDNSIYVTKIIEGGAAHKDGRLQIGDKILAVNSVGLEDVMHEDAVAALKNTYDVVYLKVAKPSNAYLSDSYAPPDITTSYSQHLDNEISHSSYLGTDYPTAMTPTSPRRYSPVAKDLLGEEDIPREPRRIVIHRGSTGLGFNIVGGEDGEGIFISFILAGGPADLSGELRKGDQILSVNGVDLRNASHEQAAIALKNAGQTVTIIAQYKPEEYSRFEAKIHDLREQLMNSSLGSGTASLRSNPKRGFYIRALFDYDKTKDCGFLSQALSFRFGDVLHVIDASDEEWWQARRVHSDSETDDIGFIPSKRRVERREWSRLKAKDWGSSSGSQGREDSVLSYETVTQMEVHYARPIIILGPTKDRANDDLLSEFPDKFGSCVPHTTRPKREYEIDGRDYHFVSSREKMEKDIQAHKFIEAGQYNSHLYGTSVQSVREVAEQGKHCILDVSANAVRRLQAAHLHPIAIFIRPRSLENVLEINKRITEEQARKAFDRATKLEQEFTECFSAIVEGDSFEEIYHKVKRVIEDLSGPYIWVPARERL

As to “NS1-SUMO (1918 NS1 covalently fused with SUMO at its C-terminus), His tagged recombinant”, the Kd stood at 630 nM.
